Measurements from paper PMC7153837.

Biological target: B10v5xhu225L, c-METxEGFR bispecific SEED antibody reconstituted by Npu DnaE protein trans-splicing
Assay: BLI

Kd: 220 nM
Substance: EGFR (EGF receptor), recombinant antigen (from UniProt P00533 25-1210)
